Results from the nanobody polyreactivity screen of Harvey et al. (2022).

Test: yeast display, Sf9 membrane polyspecificity reagent, FACS + sequencing; frameworks hold sequencing errors
How it was run: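 A nanobody's polyreactivity label depends on the gate it was sorted from. Yeast display cells were stained with 10% biotinylated, detergent-solubilized Sf9 membrane reagent for 1 hour at 4 °C, enriched on streptavidin microbeads and sorted by FACS. The low and high (top ~1%) gates were set on anti-HA fluorescence for expression and streptavidin fluorescence for reagent binding.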

Sequence | polyreactivity (PSR sort gate)
QVQLVESGGGLVQAGGSLRLSCAASGITFVQYAMGWYRQAPGKERELVAAIRRGGSTSYADSVKGRFTISRDNAKNTVYLQMNSLKPEDTAVYYCARRYDWPITPLDVEYWGQGTQVTVSS | low polyreactivity
QVQLVESGGGLVQAGGSLRLSCAASGITFVRNAMGWYRQAPGKEREFVAAISWSGGSTYYADSVKGRFTISRDNAKNTVYLQMNSLKPEDTAVYYCAAAYPRVTYKYGYYWGQGTQVTVSS | high polyreactivity
QVQLVESGGGLVQAGGSLRLSCAASGITFVRYAMGWYRQAPGKERELVAVISRGGITNYADSVKGRFTISRDNAKNSVYLQMNSLKAEDTAVYYCAVRVRSNVRTYDYWGQGTQVTVSS | high polyreactivity
QVQLVESGGGLVQAGGSLRLSCAASGITFVRYTMGWYRQAPGKEWELVATITLSGGRTYYADSVQGRFTISRDNAKNTVSLQMTSLKPEDTAVYYCAASSRSRWSGYRYDYWGQGTQVTVSS | high polyreactivity
QVQLVESGGGLVQAGGSLRLSCAASGITFVSNGMGWYRTAPGKERELVAAITRSGGSTYYADSVKGRFTISRDNAKNTVYLQMNSLKPEDTAVYYCNARTSRYRRGGDSWGQGTQVTVSS | high polyreactivity
QVQLVESGGGLVQAGGSLRLSCAASGITFVTYAMGWYRQAPGKERELVAAITIGGRTNYADSVKGRFTISRDNAKNTVYLQMNSLKPEDTAVYYCNAAPVYDVTRLFYDDMGYWGQGTQVTVSS | low polyreactivity
QVQLVESGGGLVQAGGSLRLSCAASGITFVWNAMGWYRQAPGKERELVATISRGGVRTYYADSVKGRFTISRDNAKNTVYLQMNSLKPEDTAVYYCNKRYWYPSSLHWTSFRGYDYWGQGTQVTVSS | low polyreactivity
QVQLVESGGGLVQAGGSLRLSCAASGITFVWNAMGWYRQAPGKVREFVAGITYRSGRTYYADSVKGRFTISRDNAKNTVYLQMNSLKPEETAGYYCATTPRYTTYNYWGQGTQVTVSS | high polyreactivity
QVQLVESGGGLVQAGGSLRLSCAASGITFVYNAMGWYRQAPGKERELVASITFGGGSTYYADSVKGRFTISRDNAKITVYLQMHSLKPEDTAVYYCAARLHVAFDYWGQGTQVTVSS | low polyreactivity
QVQLVESGGGLVQAGGSLRLSCAASGITFVYYAMGWYRPAPGKERELVAAISWNGGSTYYADSVKGRFTISRDNAKNTVYLQMNSLKPEDSAVYYCNADSDPWYGHFSYYYYDMGYWGQGTQVTVSS | low polyreactivity
QVQLVESGGGLVQAGGSLRLSCAASGITFWAYAMGWYRQAPGKERELVAAITSGGSTNYADSVKGRFTISRDNAKNTVYLQMNSLKPEDTAVYYCAKNYRYYVFYDGFDYWGQGTQVTVSS | low polyreactivity
QVQLVESGGGLVQAGGSLRLSCAASGITFWAYAMGWYRQAPGKERELVASISSGGSTYYADSVKGRFTISRDNAKNTVYLQMNSLKPEDTAVYYCAATTLRWYGDTFNYWGQGTQVTVSS | high polyreactivity
QVQLVESGGGLVQAGGSLRLSCAASGITFWGYVMGWYRQAPGKERELVAAISSSGGRTYYADSVKGRFTISRDNAKNTVYLQMNSLKPEDTAVYYCAAVAWQGTVQFGYWGQGTQVTVSS | high polyreactivity
QVQLVESGGGLVQAGGSLRLSCAASGITFWKYAMGWYRQAPGKERELVAAISGRGGSTYYADSVKGRFTISRDNAKNTVYLQMNSLKPEDTAVFYCAKFPGISGYNYWGQGTQVTVSS | high polyreactivity
QVQLVESGGGLVQAGGSLRLSCAASGITFWSNAMGWYRQAPGKERELVAAITSSGGSTYYADSVKGRFTISRDNAKNTVYLQMNSLKPEDTAVYYCAAPISRSAGWDSYDYWGQGTQVTVSS | low polyreactivity
QVQLVESGGGLVQAGGSLRLSCAASGITFWTYTMGWYRQAPGTERELVAAISKRGGSTYYADSVKGRFTISRDNAKNSVYLQMNSLKPEDTAVYYCAATYSYRFSSFDYWGQGTQVTVSS | high polyreactivity
QVQLVESGGGLVQAGGSLRLSCAASGITFWVYVKGWYRQAPGKEREFVADISSGAGTTYYADSVKGRFTISRDNAKNTVYLQMNSLKPEDTAVYYFAARRWWPQWYDYWGQGTQVTVSS | high polyreactivity
QVQLVESGGGLVQAGGSLRLSCAASGITFWYYAMGWYRQAPGKERELVAAISWDGGSTYYADSVKGRFTISRDNAKNTVYLQMNSLKPEDTAVYYCAAEQYLYTWARHRANFDYWGQGTQVTVSS | high polyreactivity
QVQLVESGGGLVQAGGSLRLSCAASGITFWYYAMGWYRQAPRKERELVAAISWDGGSTYYADSVKGRFTISRDNAKNTVYVQMNSLKPEDTAVYYCNAVRYLERKYDYWGQGTQVTVSS | high polyreactivity
QVQLVESGGGLVQAGGSLRLSCAASGITFYDNVMGWYIQAPGKERELVAAITSGGSTNYADSVKGRFTISRDNAKNTVYLQMNSLKPEDTAVYYCAAQPRVDYEFPYRYGYWGQGTQVTVSS | low polyreactivity
QVQLVESGGGLVQAGGSLRLSCAASGITFYDNVMGWYRQAPGKERELVAAITSGGSTNYADSVKGRFTISRDNAKNTVYLQMNSLKPEDTAVYYCAAEGISVTAAQSEWYDYWGQGTQVTVSS | low polyreactivity
QVQLVESGGGLVQAGGSLRLSCAASGITFYDYAMGWYRQAPGKERELVAAISFSGSRTYYADSVKGRFTISRDNAKNTVYLQMNSLKPEDTAVYYCAASPSTPNKYGSWGQGTQVTVSS | high polyreactivity

Sequence | polyreactivity (PSR sort gate)
QVQLVESGGGLVQAGGSLRLSCAASGITFYEYAMGCYRQAPGKERELVATITSGGNTNYADSVKGRFTISRDNAKNTVYLQMNSLKPEDTAVYYCNKEWDGDGYTDDCDYDYWGQGTQVTVSS | low polyreactivity
QVQLVESGGGLVQAGGSLRLSCAASGITFYEYAMGWYRQAPGKERELVASISGSGGSTFYADSVKGRFTISRDNAKNTVYLQMNSLKPEDTAVYYCAAYKEPYYEEYGYWGQGTQVTVSS | low polyreactivity
QVQLVESGGGLVQAGGSLRLSCAASGITFYFNTMGWYRQAPGKERELVASIRNTGSTYADSVKGRFTISRDNAKNTVYLQMNSLKPEDTAVYYCAARRRKYYRGEYGYWGQGTQVTVSS | high polyreactivity
QVQLVESGGGLVQAGGSLRLSCAASGITFYFNTMGWYRQAPGKVRELVASISGGSSTYYADSVKGRFTISRDNAKNTVYLQMNSLKPEDTAVYYCNAQGALFRGWFDYDYWGQGTQVTVSS | low polyreactivity
QVQLVESGGGLVQAGGSLRLSCAASGITFYGNAMGLYRQAPGKERELVANTYYADSVKGRFTISRDNAKNTVYLQMNSLKPEDTAVYYCANRNARYRSLPPGYDYWGLGTQVTVSS | low polyreactivity
QVQLVESGGGLVQAGGSLRLSCAASGITFYGNDMGGYRQAPGKERELVAAISYSGGSTYYADSVKGRFTISRDNAKNTVYLQMNSLKPEDNAGYYCAVEGTKLYEYYWGQVTQVTVSS | low polyreactivity
QVQLVESGGGLVQAGGSLRLSCAASGITFYGYAMGWYRQAPGKERELVATISSGGSTNYADSVKGRFTISRDNAKNTVYLQMNSLKPEDTAVYYCNAAPDVNRDYEGSGDYWGQGSQVTVSS | low polyreactivity
QVQLVESGGGLVQAGGSLRLSCAASGITFYKNTMGWYRQAPGKERELVAAISSSGDNTFYADSVKGRFTISRDNAKNTVYLQMNSLKPEDTAVYYCATYRVINTIRGYYYTYDYWGQGTQVTVSS | high polyreactivity
QVQLVESGGGLVQAGGSLRLSCAASGITFYPYAMGWYSQAPGKEWELVADITWSGGSTYYADSVKGRFTISRDNAKNTVYLQMNSLKPEDSAVYYCNRKSYRLRSKVRGQYLLGYDWGQGTQVTVSS | high polyreactivity
QVQLVESGGGLVQAGGSLRLSCAASGITFYPYTLGWYRQAPGKERELVASISTSGTNYADSVKGRFTISRDNAKNTVYLQMNSLKPEDTAVYYCAADIWSYYRSTHVDSWGQGTQVTVSS | low polyreactivity
QVQLVESGGGLVQAGGSLRLSCAASGITFYQYAMGWSRQAPGKERELVAAIRWSGSSTYYADSVKGRFTISRDNAKNTVYLQMNSLKPEDTAVYYCAAAPGGWPGEYWGQGTQVTVSS | low polyreactivity
QVQLVESGGGLVQAGGSLRLSCAASGITFYQYVMGRYRQAPGKERELVAAISTSGDSTYYADYVKGRFTISRDNAKNTVYLQINSLKTEDTAVYYCATYWSGHYYYWGQGTQVTVSS | high polyreactivity
QVQLVESGGGLVQAGGSLRLSCAASGITFYRNAMGWYRKAPGKERELLAAISWSGGRTYYADSVKGRFTISRDNAKNTVYLQMNSLKPEDTAVYYCAASSWSSYYRPKYYWGQGTQVTVSS | high polyreactivity
QVQLVESGGGLVQAGGSLRLSCAASGITFYRNARGWYRQAPGKERELVAAITSGTRTYYADSVKGRFTISRDNAKNTVYLQMNSLKPEDTAVYYCAKRGPYYNDDEYYCGQGTQVTVSS | low polyreactivity
QVQLVESGGGLVQAGGSLRLSCAASGITFYRYAMGWSRQAPGKERELVAAIRRAGSTYYADSVKGRFTISRDIAKNSVYLQMNSLKPEDTAVYYCNARYGIGMNYWGQGTHVTVSS | high polyreactivity
QVQLVESGGGLVQAGGSLRLSCAASGITFYRYAMGWYRQAPGKEREFVAAITWGSTYYADSVKGRFTISRDNAKNTVYLQMNSLTPEDTAVYYCNADWGGFWQHRELDSWGQGTQVTVSS | low polyreactivity
QVQLVESGGGLVQAGGSLRLSCAASGITFYRYAMGWYRQAPGKERELVAAISSRGGRTYYADSVKGRFTISRDNAKNTVYLQMNSLKPEDTAVYYCAKGGKVGSTLEYDYWGQGTQVTVSS | high polyreactivity
QVQLVESGGGLVQAGGSLRLSCAASGITFYRYAMGWYRQAPGKERELVAAISYRGGRTFYADSVKGRFTISRDNAKNTVYLQMNSLKPEDTAVYYCNARDYYEKMDYWGQGTQVTVSS | high polyreactivity
QVQLVESGGGLVQAGGSLRLSCAASGITFYRYAMGWYRQARGKERELVADITSSGGSTYYADSVKGRFTISRDNAKNTVYLQMNSLKPEDTAVYYFNAAYYFSRIVYPYDYWGQGTQVTVSS | high polyreactivity
QVQLVESGGGLVQAGGSLRLSCAASGITFYSNAMGWYRQAPGKERELVATITRGGSTYYADSVKGRFTISRDNAKNTVYLQMNSLKPEDTAVYYCAADYSYRGREYGYWGQGTQVTVSS | low polyreactivity
QVQLVESGGGLVQAGGSLRLSCAASGITFYSYAMGWYRQAPGKEREFVAAINWRGGNTYYADSVKGRFTISRDNAKNTVYLQMNSLKPEDTAFYYCARDGIYAYWVDPYDYWGQGTQVTVSS | high polyreactivity
